Consider 2 substances from patent publication US8753698B2, “Anti-hypertensive functional food products” (Globus Egg Sciences B.V., priority 2004, dated 2014).

The test system of one test is SHR rats. Description: Acute oral treatment of anaesthetized SHR, blood pressure. In kind it is in vivo, rat. The conditions noted are these: single oral dose 1000 mg/kg, percentage change from baseline. Here is the method:
(§1) This study was performed to establish the effects of acute oral treatment of anaesthetized SHR with lysozym/alcalase on blood pressure and plasma ACE activity.
Rats: SHR rats (382-440 g) were purchased via Harlan, Horst, The Netherlands from Harlan, Oxon, United Kingdom.
(§2) Surgery: At the day of the experiment, rats were anaesthetized and the carotid artery was cannulated for measurement of blood pressure. In addition to that, the jugular vein was cannulated to allow blood sampling for measurement of plasma ACE activity.
(§3) Protocol: At timepoint t=0, rats were administered the study drugs by means of oral gavage using a gastric tube. Blood samples were drawn immediately prior to gavage at t=0, as well as at t=0.5, t=1, t=2, t=3, t=4, t=5 and t=6 hr thereafter. Blood pressure was recorded (mean value every 10 min) throughout the 6 hr study period;
(§4) Study drugs: Rats were randomly administered either lysozym/alcalase or lysozym (both 1000 mg/kg; dissolved in 1 ml drinking water), or water only.

The target in test [1] is Angiotensin-I Converting Enzyme (ACE) (Homo sapiens, UniProt P12821). Description: Determination of ACE inhibitory activity of hydrolysates in a microtiter plate (Hip-His-Leu substrate). The test is classed as biochemical. As to conditions: no digestion simulation, in %. How it is done:
ACE inhibitory activity can be measured in vitro using a spectrophotometry based assay. The assay is based on the liberation of hippuric acid from Hip-His-Leu substrate catalyzed by ACE.
Calculation of Ace Inhibition:
[formula] 2.4 Further (Optimized) Hydrolysis of Ovomucin with Alcalase Protocol for the DH Determination by TNBS Method Solutions: • 0.21 M Sodium phosphate buffer pH8.2 • 0.21 M NaH2PO4.H2O (25 ml solution) • 0.21 M Na2HPO4.2H2O (500 ml solution) • mix solutions to pH 8.2 • 0.05% TNBS • Dilute TNBS stock (5% solution) to 0.05% in MQ cover reagent tube with aluminium foil and store in dark place • 1% SDS solution • Leucine standard (stock 3 mM Leucine) • Dissolve Leucine in 1% SDS solution. Dilute the stock solution 20×, 10×, 4× en 2× with 1% SDS for analysis • Blank • Dilute non-hydrolysed sample in 1% SDS to a protein concentration of 0.5 mg/ml • Samples • Dilute hydrolysed protein in 1% SDS to a concentration of 0.5 mg/ml in duplo Analysis: • Pipet 15 μl sample (Leucine standard or sample) in microwell. Measure each dilution in twofold in plate (Costar, non-binding plate) • Add 45 μl 0.21 M sodium phosphate buffer pH 8.2 • Add 45 μl 0.05% TNBS. Cover plate with aluminium foil. Incubate plate for 60 minutes in a 50° C. stove. • After incubation add 90 μl 0.1 N HCl • Measure absorption at 340 nm (microplate reader) Calculation of degree of hydrolysis (DH): • Make calibration line of Leucine standard. This calibration line is used to convert absorption values of samples to NH2-equivalents.

A further test addresses T1, plasma ACE activity (Rattus norvegicus, UniProt P47820).
T1 construct: effects of acute oral treatment of anaesthetized SHR with lysozym/alcalase on blood pressure and plasma ACE activity; from tissue; host or cells: blood plasma of SHR rats
T1 sequence (P47820 36-1313): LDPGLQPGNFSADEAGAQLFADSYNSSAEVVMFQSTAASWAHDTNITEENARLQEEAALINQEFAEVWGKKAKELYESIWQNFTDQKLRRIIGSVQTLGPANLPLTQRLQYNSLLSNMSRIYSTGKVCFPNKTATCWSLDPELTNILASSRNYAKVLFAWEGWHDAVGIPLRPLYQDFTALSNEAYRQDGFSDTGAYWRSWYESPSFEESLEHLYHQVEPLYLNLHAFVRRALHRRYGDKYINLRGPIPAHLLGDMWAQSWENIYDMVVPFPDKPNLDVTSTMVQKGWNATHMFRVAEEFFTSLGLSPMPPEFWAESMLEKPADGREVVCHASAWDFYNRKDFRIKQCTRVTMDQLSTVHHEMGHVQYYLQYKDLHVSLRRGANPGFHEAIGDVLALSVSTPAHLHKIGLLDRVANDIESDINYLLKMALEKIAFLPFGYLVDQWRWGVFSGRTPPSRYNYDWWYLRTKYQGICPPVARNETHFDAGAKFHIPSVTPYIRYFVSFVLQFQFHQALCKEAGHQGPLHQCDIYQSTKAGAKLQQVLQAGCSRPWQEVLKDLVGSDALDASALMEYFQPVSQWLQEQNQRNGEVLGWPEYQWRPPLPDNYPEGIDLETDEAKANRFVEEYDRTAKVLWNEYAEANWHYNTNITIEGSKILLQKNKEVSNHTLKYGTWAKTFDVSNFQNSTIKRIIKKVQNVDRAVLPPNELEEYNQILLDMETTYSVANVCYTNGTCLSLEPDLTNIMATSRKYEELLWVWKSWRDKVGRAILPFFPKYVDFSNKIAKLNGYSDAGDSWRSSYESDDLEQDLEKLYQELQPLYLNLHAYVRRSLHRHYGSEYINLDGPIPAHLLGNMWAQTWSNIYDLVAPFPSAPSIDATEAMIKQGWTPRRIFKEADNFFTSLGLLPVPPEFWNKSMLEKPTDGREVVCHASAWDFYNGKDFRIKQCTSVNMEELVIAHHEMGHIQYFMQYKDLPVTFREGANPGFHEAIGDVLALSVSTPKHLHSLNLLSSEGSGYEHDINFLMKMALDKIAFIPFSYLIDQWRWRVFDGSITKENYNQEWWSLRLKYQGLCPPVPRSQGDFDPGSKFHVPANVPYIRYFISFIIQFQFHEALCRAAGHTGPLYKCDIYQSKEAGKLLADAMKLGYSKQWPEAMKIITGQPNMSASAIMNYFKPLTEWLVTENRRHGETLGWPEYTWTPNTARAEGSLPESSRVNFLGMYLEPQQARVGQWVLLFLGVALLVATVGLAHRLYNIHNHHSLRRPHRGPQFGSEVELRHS
Briefly: Acute oral treatment of anaesthetized SHR, plasma ACE activity. The conditions noted are these: single oral dose 1000 mg/kg. In kind it is in vivo. Here is the method:
as §1, §2, §3, §4

Sequence of Angiotensin-I Converting Enzyme (ACE) (P12821 30-1306, species assumed): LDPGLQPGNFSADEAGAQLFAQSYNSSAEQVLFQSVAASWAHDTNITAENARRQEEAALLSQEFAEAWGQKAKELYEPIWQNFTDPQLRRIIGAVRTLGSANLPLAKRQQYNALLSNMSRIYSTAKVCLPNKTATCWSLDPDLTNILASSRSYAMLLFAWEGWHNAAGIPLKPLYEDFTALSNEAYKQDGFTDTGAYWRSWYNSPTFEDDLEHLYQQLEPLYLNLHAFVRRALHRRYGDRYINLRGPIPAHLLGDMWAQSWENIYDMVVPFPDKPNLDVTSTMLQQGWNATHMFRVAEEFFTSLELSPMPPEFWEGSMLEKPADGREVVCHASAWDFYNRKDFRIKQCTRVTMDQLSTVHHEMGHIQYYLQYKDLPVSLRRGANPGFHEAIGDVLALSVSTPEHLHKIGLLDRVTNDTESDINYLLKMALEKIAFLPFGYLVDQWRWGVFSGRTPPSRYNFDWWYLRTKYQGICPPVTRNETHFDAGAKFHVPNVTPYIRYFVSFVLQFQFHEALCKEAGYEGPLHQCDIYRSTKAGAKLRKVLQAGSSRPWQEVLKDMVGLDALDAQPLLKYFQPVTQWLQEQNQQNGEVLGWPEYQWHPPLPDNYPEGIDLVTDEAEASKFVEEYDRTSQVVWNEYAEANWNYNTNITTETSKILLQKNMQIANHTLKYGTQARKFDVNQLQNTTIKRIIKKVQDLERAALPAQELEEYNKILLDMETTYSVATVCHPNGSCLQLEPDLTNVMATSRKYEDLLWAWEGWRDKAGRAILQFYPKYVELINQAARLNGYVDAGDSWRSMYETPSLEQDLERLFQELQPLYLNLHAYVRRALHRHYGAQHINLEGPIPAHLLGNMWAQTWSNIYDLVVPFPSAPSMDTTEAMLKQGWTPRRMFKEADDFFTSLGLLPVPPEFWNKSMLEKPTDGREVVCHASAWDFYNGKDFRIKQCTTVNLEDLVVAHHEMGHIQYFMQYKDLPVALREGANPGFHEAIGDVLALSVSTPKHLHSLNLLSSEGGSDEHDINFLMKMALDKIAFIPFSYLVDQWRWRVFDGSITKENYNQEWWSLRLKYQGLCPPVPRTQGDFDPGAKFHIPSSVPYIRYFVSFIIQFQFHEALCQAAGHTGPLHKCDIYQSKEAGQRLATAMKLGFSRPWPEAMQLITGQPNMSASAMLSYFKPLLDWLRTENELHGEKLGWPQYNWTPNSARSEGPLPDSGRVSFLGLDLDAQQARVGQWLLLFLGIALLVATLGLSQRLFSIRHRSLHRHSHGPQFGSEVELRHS

As to “Lys UM: lysozyme, not pre-hydrolysed, nor in vitro digested; control in SHR studies”, the “maximal reduction in SBP” value in the test with SHR rats was “approx. 15%”. Further, the ACE inhibition is listed as 0.1 in test [1] (conc. 0.019 mg/ml), 1.3 in test [1] (conc. 0.056 mg/ml), −4.7 in test [1] (conc. 0.167 mg/ml) and 2.6 in test [1] (conc. 0.500 mg/ml). In addition, the “maximal decrease (inhibition) of plasma ACE activity from baseline” value in the test with plasma ACE activity is reported as “approx. 10%”.

Consider “OM-UM: ovomucin, not pre-hydrolysed, nor in vitro digested”, for which the ACE inhibition in test [1] (conc. 0.019 mg/ml) was −0.4; in test [1] (conc. 0.056 mg/ml) it was 5.2; in test [1] (conc. 0.167 mg/ml) it was 2.2; in test [1] (conc. 0.500 mg/ml) it was 2.1.
